Reference: paper doi:10.1101/820647

What was measured:
Assay in all cases: ITC
[1] = target: CDY1 chromodomain (aa 2-63) (human) (UniProt Q9Y6F8)
[2] = target: CDYL1b chromodomain (aa 1-66) (human) (UniProt Q9Y232)
[3] = target: CDYL2 chromodomain (aa 2-62 or 2-64) (human) (UniProt Q8N8U2)
UniProt Q8N8U2, sequence (Q8N8U2 2-64): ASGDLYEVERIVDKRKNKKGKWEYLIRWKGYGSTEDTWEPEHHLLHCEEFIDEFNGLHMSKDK

UniProt Q9Y6F8, sequence (Q9Y6F8 2-63): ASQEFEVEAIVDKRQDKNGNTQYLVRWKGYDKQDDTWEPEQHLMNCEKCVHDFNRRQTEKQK

Kd [1] | fold more potent than to CBX7 [2] | fold more potent than to CBX7 [3] | Substance
0.5 µM | – | – | H3K9me3 peptide
93 µM | – | – | H3K27me3 peptide (canonical histone H3)
32 µM | – | – | H3tK27me3 peptide (testis-specific histone H3t)
– | 10 fold | 10 fold | UNC4850 (peptide)
